For the assay, the target named is T1, human VPS15, subunit of complexes I and II (human, UniProt Q99570 1-1358).
T1 construct: VPS15, human; expressed as HsVPS15-3xTEV-ZZ from the plasmid HsVPS34 + HsVPS15-3xTEV-ZZ; A 3xTEV site lies between VPS15 and ZZ; whether the tag was cut off is told only in Ohashi et al., 2016; The printed theoretical masses fit tag-free whole chains (my reckoning); also called HsVPS15; source: Expi293 cells, transfected, co-expressed with the other subunits, purified as a complex (method of …)
In words: SEC-MALS; purified, co-expressed human complex II at 0.8 mg/mL; Superose 6 10/300, 0.5 mL/min; measured 384 kDa against 386 kDa theoretical. The note with it: both partners purified. (In general: Size exclusion chromatography separates by hydrodynamic size, large species first.)

As usually defined, the stoichiometry N is the number of molecules, sites or subunits per partner or assembly.

T1 sequence (Q99570 whole entry, one chain of several): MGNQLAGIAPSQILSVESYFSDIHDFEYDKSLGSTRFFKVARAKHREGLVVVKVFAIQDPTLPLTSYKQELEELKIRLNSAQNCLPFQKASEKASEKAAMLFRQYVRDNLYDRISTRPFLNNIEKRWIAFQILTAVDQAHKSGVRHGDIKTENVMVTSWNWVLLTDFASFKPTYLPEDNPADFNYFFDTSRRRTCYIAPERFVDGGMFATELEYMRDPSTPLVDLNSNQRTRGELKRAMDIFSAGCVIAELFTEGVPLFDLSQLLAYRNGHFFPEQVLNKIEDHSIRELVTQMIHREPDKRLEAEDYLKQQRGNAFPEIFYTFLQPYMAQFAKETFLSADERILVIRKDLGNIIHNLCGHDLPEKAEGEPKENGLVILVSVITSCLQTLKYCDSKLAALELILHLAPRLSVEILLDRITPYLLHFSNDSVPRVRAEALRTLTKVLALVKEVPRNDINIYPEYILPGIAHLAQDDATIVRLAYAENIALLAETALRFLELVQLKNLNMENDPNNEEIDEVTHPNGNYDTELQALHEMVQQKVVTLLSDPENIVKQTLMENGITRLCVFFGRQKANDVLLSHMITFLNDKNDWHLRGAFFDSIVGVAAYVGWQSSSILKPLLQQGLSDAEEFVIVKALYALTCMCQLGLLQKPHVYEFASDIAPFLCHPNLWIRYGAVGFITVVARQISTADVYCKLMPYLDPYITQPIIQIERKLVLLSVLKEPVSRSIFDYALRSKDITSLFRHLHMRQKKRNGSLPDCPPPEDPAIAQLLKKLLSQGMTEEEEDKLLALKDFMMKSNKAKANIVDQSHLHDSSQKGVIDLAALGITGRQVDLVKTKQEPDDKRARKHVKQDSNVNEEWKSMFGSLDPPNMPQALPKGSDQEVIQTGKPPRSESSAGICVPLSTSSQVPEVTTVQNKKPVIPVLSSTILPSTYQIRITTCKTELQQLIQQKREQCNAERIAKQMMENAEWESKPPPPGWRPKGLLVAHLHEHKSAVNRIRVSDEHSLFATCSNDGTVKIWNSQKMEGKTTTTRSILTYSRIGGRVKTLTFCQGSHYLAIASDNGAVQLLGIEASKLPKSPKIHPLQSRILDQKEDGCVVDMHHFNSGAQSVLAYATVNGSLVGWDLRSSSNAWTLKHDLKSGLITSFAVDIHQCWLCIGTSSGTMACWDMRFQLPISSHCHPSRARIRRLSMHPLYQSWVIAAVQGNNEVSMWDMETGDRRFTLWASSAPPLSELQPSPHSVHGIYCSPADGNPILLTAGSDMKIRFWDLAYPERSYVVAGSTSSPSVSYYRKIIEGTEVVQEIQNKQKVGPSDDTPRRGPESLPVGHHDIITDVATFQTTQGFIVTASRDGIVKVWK

B1: human UVRAG, specific subunit of complex II (natural protein, UniProt Q9P2Y5 1-699, looked up)
chain: MSASASVGGPVPQPPPGPAAALPPGSAARALHVELPSQQRRLRHLRNIAARNIVNRNGHQLLDTYFTLHLCSTEKIYKEFYRSEVIKNSLNPTWRSLDFGIMPDRLDTSVSCFVVKIWGGKENIYQLLIEWKVCLDGLKYLGQQIHARNQNEIIFGLNDGYYGAPFEHKGYSNAQKTILLQVDQNCVRNSYDVFSLLRLHRAQCAIKQTQVTVQKIGKEIEEKLRLTSTSNELKKKSECLQLKILVLQNELERQKKALGREVALLHKQQIALQDKGSAFSAEHLKLQLQKESLNELRKECTAKRELFLKTNAQLTIRCRQLLSELSYIYPIDLNEHKDYFVCGVKLPNSEDFQAKDDGSIAVALGYTAHLVSMISFFLQVPLRYPIIHKGSRSTIKDNINDKLTEKEREFPLYPKGGEKLQFDYGVYLLNKNIAQLRYQHGLGTPDLRQTLPNLKNFMEHGLMVRCDRHHTSSAIPVPKRQSSIFGGADVGFSGGIPSPDKGHRKRASSENERLQYKTPPPSYNSALAQPVTTVPSMGETERKITSLSSSLDTSLDFSKENKKKGEDLVGSLNGGHANVHPSQEQGEALSGHRATVNGTLLPSEQAGSASVQLPGEFHPVSEAELCCTVEQAEEIIGLEATGFASGDQLEAFNCIPVDSAVAVECDEQVLGEFEEFSRRIYALNENVSSFRRPRRSSDK
notes: UVRAG, human; see Supplementary file 6; also called HsUVRAG; not shown: ZZ (only in pYO1018 and pYO1023)
On to B1, for which the “stoichiometry N” value was found to be 1.

These data come from article PMC7326497, “Membrane characteristics tune activities of endosomal and autophagic human VPS34 complexes” (eLife, 2020).
